Laboratory results as given in patent US20160009782A1 (Stanford University, published 2016).
Blank lines part the entries; values can stand above or below the binder they belong to.

Key:
[1] = target: T1, oligomerized synthetic human Aβ1-42 peptide (oligo-Aβ42) (human, N-terminal biotin (biotinylated peptide used in the cell, neuron and streptavidin pull-down assays)); assay: oligo-Aβ42 on transfected HEK293 cells, fluorescence, control-vector cells subtracted
T1 construct: Soluble oligomer mixture, mainly high-n oligomers; About 10-20% stays as monomer or low-n oligomer; Concentrations are monomer equivalents of total peptide; this is probably a misprint, since the peptide used was bought as human Aβ1-42; Both biotinylated and non-biotinylated peptides were obtained; also called Aβ42 oligomers; oligomerized Aβ42
Text: (§1) Bottom: bar graphs of average band intensities±SEM from experiments such as that shown in FIG. 10C (n=3; see also FIG. 2H). […] Top, right: Western blot with anti-Aβ antibodies specific for oligomeric forms (OMAB; see FIG. 10D); Bottom, left: quantification of Aβ42 binding. Normalized average band intensities±SEM (n=3).
(§2) The bound Aβ peptides were visualized with streptavidin-Alexa fluorophore conjugates (Alexa 488, 598 or 647; wavelength choice depending on experiments) (J. Lauren, et al. (2009) “Cellular prion protein mediates impairment of synaptic plasticity by amyloid-beta oligomers.” Nature 457, 1128). […] Fluorescent images were captured with fixed illumination and exposure time using a Nikon 20× objective of numerical aperture 0.75, and then fluorescence intensity was quantified using ImageJ software (NIH). In each experiment, values from control vector transfected cells were used as background, and subtracted from those of experimental cells.

[2] = target: T1, oligomerized synthetic human Aβ1-42 …; assay: oligomerized Aβ42 immunoprecipitated with soluble Fc fusion protein, Western blot α-Aβ (4G8) and α-oligo Aβ (OMAB)
Text: as §1, with “Mean±SEM. […] Bottom:” for “Bottom:”
The Aβ signals were quantified as described above.

[3] = target: T1, oligomerized synthetic human Aβ1-42 …; assay: synthetic Aβ42 oligomers immunoprecipitated with PirB-Fc proteins, Western blot α-Aβ (6E10), fully reduced
[4] = target: T1, oligomerized synthetic human Aβ1-42 …; assay: Aβ42 oligomers on transfected HEK293 cells, fluorescence staining
Text: as §2

[5] = target: T1, oligomerized synthetic human Aβ1-42 …; assay: Aβ42 oligomers pulled down with purified Fc fusion protein, Western blot for Aβ, normalised band intensity (n=3)
Text: as §1, with “Data are mean±SEM (n=5). […] Mean±SEM. […] Bottom:” for “Bottom:”

B2: PirB (D5D6)-Fc, PirB residues 419-643 fused to human IgG1-Fc (Fc fusion)
chain: GLSKKPSLLTHQGHILDPGMTLTLQCFSDINYDRFALHKVGGADIMQHSSQQTDTGFSVANFTLGYVSSSTGGQYRCYGAHNLSSEWSASSEPLDILITGQLPLTPSLSVQPNHTVHSGETVSLLCWSMDSVDTFILSKEGSAQQPLRLKSKSHDQQSQAEFSMSAVTSHLSGTYRCYGAQDSSFYLLSSASAPVELTVSGPIETSTPPPTMSMPLGGLHMYLKA
notes: Used as the negative control in the pull-down assays; not shown: human IgG1-Fc from the pFUSE-hIgG1e3-Fc2 vector (InvivoGen); exact limits, linker and any engineered changes are not sta
binding result [2]: no binding

B3: D3D6 (PirB-Fc) (Fc fusion)
chain: GNLQKPTIKAEPGSVITSKRAMTIWCQGNLDAEVYFLHNEKSQKTQSTQTLQEPGNKGKFFIPSVTLQHAGQYRCYCYGSAGWSQPSDTLELVVTGIYEYYEPRLSVLPSPVVTAGGNMTLHCASDFPYDKFILTKEDKKFGNSLDTEHISSSGQYRALFIIGPTTPTHTGAFRCYGYYKNAPQLWSVPSALQQILISGLSKKPSLLTHQGHILDPGMTLTLQCFSDINYDRFALHKVGGADIMQHSSQQTDTGFSVANFTLGYVSSSTGGQYRCYGAHNLSSEWSASSEPLDILITGQLPLTPSLSVQPNHTVHSGETVSLLCWSMDSVDTFILSKEGSAQQPLRLKSKSHDQQSQAEFSMSAVTSHLSGTYRCYGAQDSSFYLLSSASAPVELTVSGPIETSTPPPTMSMPLGGLHMYLKA
modifications: Fc-mediated homodimer; one chain given
notes: not in the list MOLECULES; also called PirB (D3D6)-Fc; PirB:221-643 (D3D6); not shown: human IgG1-Fc of vector pFUSE-hIgG1e3-Fc2 (InvivoGen) and the cloning-junction residues
binding result [3]: no binding

B5: LilrB2 (D3D4)-Fc, LilrB2 residues 219-458 fused to human IgG1-Fc (Fc fusion)
chain: PGVSKKPSLSVQPGPVVAPGESLTLQCVSDVGYDRFVLYKEGERDLRQLPGRQPQAGLSQANFTLGPVSRSYGGQYRCYGAHNLSSECSAPSDPLDILITGQIRGTPFISVQPGPTVASGENVTLLCQSWRQFHTFLLTKAGAADAPLRLRSIHEYPKYQAEFPMSPVTSAHAGTYRCYGSLNSDPYLLSHPSEPLELVVSGPSMGSSPPPTGPISTPAGPEDQPLTPTGSDPQSGLGRH
notes: not shown: human IgG1-Fc from the pFUSE-hIgG1e3-Fc2 vector (InvivoGen); exact limits, linker and any engineered changes are not sta
binding result [5]: no binding

The next lines start with the values.

binding result [1]: no binding (tested: 200 nM)
B1: human killer immune receptor Kir (3DL1) expressed in HEK293 cells (receptor, UniProt P43629 22-444, looked up)
chain: HMGGQDKPFLSAWPSAVVPRGGHVTLRCHYRHRFNNFMLYKEDRIHIPIFHGRIFQESFNMSPVTTAHAGNYTCRGSHPHSPTGWSAPSNPVVIMVTGNHRKPSLLAHPGPLVKSGERVILQCWSDIMFEHFFLHKEGISKDPSRLVGQIHDGVSKANFSIGPMMLALAGTYRCYGSVTHTPYQLSAPSDPLDIVVTGPYEKPSLSAQPGPKVQAGESVTLSCSSRSSYDMYHLSREGGAHERRLPAVRKVNRTFQADFPLGPATHGGTYRCFGSFRHSPYEWSDPSDPLLVSVTGNPSSSWPSPTEPSSKSGNPRHLHILIGTSVVIILFILLLFFLLHLWCSNKKNAAVMDQEPAGNRTANSEDSDEQDPEEVTYAQLDHCVFTQRKITRPSQRPKTPPTDTILYTELPNAKPRSKVVSCP
notes: whole, on cells

binding result [4]: no binding (tested: 200 nM)
B4: human LilrB1 expressed in HEK293 cells (receptor, UniProt Q8NHL6 24-650, looked up)
chain: GHLPKPTLWAEPGSVITQGSPVTLRCQGGQETQEYRLYREKKTALWITRIPQELVKKGQFPIPSITWEHAGRYRCYYGSDTAGRSESSDPLELVVTGAYIKPTLSAQPSPVVNSGGNVILQCDSQVAFDGFSLCKEGEDEHPQCLNSQPHARGSSRAIFSVGPVSPSRRWWYRCYAYDSNSPYEWSLPSDLLELLVLGVSKKPSLSVQPGPIVAPEETLTLQCGSDAGYNRFVLYKDGERDFLQLAGAQPQAGLSQANFTLGPVSRSYGGQYRCYGAHNLSSEWSAPSDPLDILIAGQFYDRVSLSVQPGPTVASGENVTLLCQSQGWMQTFLLTKEGAADDPWRLRSTYQSQKYQAEFPMGPVTSAHAGTYRCYGSQSSKPYLLTHPSDPLELVVSGPSGGPSSPTTGPTSTSGPEDQPLTPTGSDPQSGLGRHLGVVIGILVAVILLLLLLLLLFLILRHRRQGKHWTSTQRKADFQHPAGAVGPEPTDRGLQWRSSPAADAQEENLYAAVKHTQPEDGVEMDTRSPHDEDPQAVTYAEVKHSRPRREMASPPSPLSGEFLDTKDRQAEEDRQMDTEAAASEAPQDVTYAQLHSLTLRREATEPPPSQEGPSPAVPSIYATLAIH
notes: whole, on cells; not shown: C-terminal Myc tag
